According to patent publication US8821862B2, “Soluble β-N-acetylglucosaminidase based antibiofilm compositions and uses thereof” (Kane Biotech Inc., priority 2002, dated 2014):

Experiments:
S. epidermidis biofilm = experiment: Dispersal of S. epidermidis biofilm aggregates in a tube; type: cell-based; details: scraped biofilm cell aggregates in tube treated with DispersinB
Description: The biofilm growth from the surface was scraped from the bottom of the tube and transferred to another tube (FIG. 2). Under these condition cells formed a sticky aggregate that rapidly settle to the bottom of the tube.

[1] = tested on: A. actinomycetemcomitans CU1000 biofilms; experiment: Biofilm killing assay; type: cell-based; details: DispersinB alone, 20 μg/mL
Protocol: Biofilm Killing Assay. […] Tubes were vortexed for 10 s, and 20 μL aliquots of the detached biofilms were transferred to the wells of a flat-bottomed 96-well microtiter plate containing 180 μL of fresh broth. Five serial dilutions (20 μL into 180 μL) were performed directly into adjacent wells. Plates were incubated for 48 h and then rinsed and stained with crystal violet as described above. Wells containing 30-300 biofilm colonies were photographed under a dissecting microscope and counted. In some assays, biofilms were pre-treated with 1 mL of DispersinB™ (20 μg/mL in PBS) for 5 min prior to the SDS treatment. In these assays, a 100 μL quantity of SDS in PBS (at 10 times the test concentration) was added directly to the DispersinB™-treated cell suspension and mixed. After 5 min, tubes were vortexed briefly, and 20-μL aliquots of culture were enumerated as described above. Killing assays were performed in duplicate tubes on at least 5 separate occasions, with similar results.

E. coli = experiment: In vitro microplate biofilm formation assay (crystal violet); type: cell-based, Escherichia coli; details: DispersinB at different concentrations, CFA medium, 26° C., 24 hours
Protocol: (§1) An in vitro microplate assay was performed to determine the effect of DispersinB™ on the growth and biofilm formation of E. coli, S. epidermidis, and S. aureus. E. coli biofilm was grown in colony forming antigen (CFA) medium. […] S. epidermidis and S. aureus biofilm was grown in tryptic soy broth (TSB). Bacteria were separately grown in 96-well microtiterplate in the absence and presence of DispersinB™ at different concentrations. The E. coli plate was incubated at 26° C. for 24 hours. The S. epidermidis and S. aureus biofilm plates were incubated at 37° C. for 24 hours. Growth of planktonic cells based on the absorbance at 600 nm was determined using Labsystems Multiskan Ascent microplate reader. Biofilm was measured by discarding the medium; rinsing the wells with water (three times), and staining bound cells with crystal violet. The dye was solubilized with 33% acetic acid, and absorbance at 630 nm was determined using a microtiter plate reader.

S. aureus = experiment: as above; type: cell-based, Staphylococcus aureus; details: DispersinB at different concentrations, TSB, 37° C., 24 hours
Protocol: as §1

[2] = DispersinB enzyme activity; type: biochemical; details: recombinant protein purified from an overexpressing strain of E. coli
Protocol: Reagents. Recombinant dispersinB protein was purified from an overexpressing strain of E. coli as previously described (Kaplan et al., J. Bacteriol. 2003, 185: 4693-4698). […] Sodium dodecyl sulfate (SDS) was purchased from Fluka (St. Gallen, Switzerland). Phosphate-buffered saline (PBS; 138 mM NaCl, 10 mM phosphate, 2.7 mM KCl, pH 7.4) was purchased from Sigma Chemical Company (St. Louis, Mo., USA).

[3] = tested on: E. coli csrA luxCDABE kan^r biofilm; experiment: Bioluminescent E. coli biofilm on filter disc, luminescence; type: cell-based; details: for luminescence, Day 1 / luminescence, Day 2 / luminescence, Day 3 / luminescence, Day 4: DispersinB 50 μg/ml
Description: E. coli TRMG1655 [csrA::kan^r] strain was transformed with transposon, mini-TN5 luxCDABE::kan^r for luciferase expression (Kadurugamuwa et al., 2005, Infect. Immun. 73: 3878-3887), and the operon integrated into the chromosome. Integration was confirmed by amplification of the genomic DNA upstream of the transposon by inverse PCR using Ssp1-digested genomic DNA. Primers UTCF1 (5′-[…]-3′; SEQ ID NO:13) and UTCR (5′-[…]-3′; SEQ ID NO:14) were used to amplify the upstream region using Pfu DNA polymerase (Sigma-Oligosynthesis, St. Louis, Mo.). The lux operon is derived from Photorhabdus luminescence and was obtained from Xenogen Inc. (Alameda, Calif.). These bioluminescent bacteria allow real-time monitoring by noninvasive imaging of biofilms, either in vitro or in vivo.
A cell suspension of 10^6 E. coli csrA luxCDABE kan^r was used to inoculate a filter disc (Millipore Corporation, Billerica, Mass.). The E. coli biofilm was maintained in minimal media (M9) supplemented with 50 μg/ml kanamycin and 100 μg/ml ampicillin. The media were changed every day by transferring the disc to new plate. After 3 days, chemoluminescence activity of the established biofilm was measured using a Typhoon™ imaging scanner (General Electric Healthcare Life Sciences) and ImageQuant TL software (Amersham Biosciences, Sunnyvale, Calif.). The measure luminescence directly correlates with the metabolic activity of the biofilm.
Luminescence was measured at day 0 and was used as the control. Following the measurement of luminescence at day 0, each disc was treated with one of the following—media alone (control) and media containing:
Luminescence was measured every 24 hours followed by replacing the media. Thus, every 24 h following the measurement of the luminescence, 10 μl each of the different solutions was applied to the plate and the biofilm disc was placed on top of the drop everyday. The quantitative analysis of the biofilm luminescence from each day was used to compare the biofilm activity after treatment with the different treatments.
The experiments were repeated using the same E. coli strain csrA luxCDABE kan^r and protocols. Biofilm discs were pulsed with media alone (control) and media containing: […]

[4] = Table 3, phage 10^8, treatment renewed every 24 h
[5] = Table 4, repeated experiment, BisEDT 50 μg/ml, phage cocktail 10^8

B1: DispersinB™: 381 amino acid soluble β-N-acetylglucosaminidase encoded by dspB of A. actinomycetemcomitans; mature polypeptide SEQ ID NO:11 (protein)
chain: NCCVKGNSIYPQKTSTKQTGLMLDIARHFYSPEVIKSFIDTISLSGGNFLHLHFSDHENYAIESHLLNQRAENAVQGKDGIYINPYTGKPFLSYRQLDDIKAYAKAKGIELIPELDSPNHMTAIFKLVQKDRGVKYLQGLKSRQVDDEIDITNADSITFMQSLMSEVIDIFGDTSQHFHIGGDEFGYSVESNHEFITYANKLSYFLEKKGLKTRMWNDGLIKNTFEQINPNIEITYWSYDGDTQDKNEAAERRDMRVSLPELLAKGFTVLNYNSYYLYIVPKASPTFSQDAAFAAKDVIKNWDLGVWDGRNTKNRVQNTHEIAGAALSIWGEDAKALKDETIQKNTKSLLEAVIHKTNGDE
modifications: Actinobacillus actinomycetemcomitans
For B1, the “dispersal of S. epidermidis biofilm” value (S. epidermidis biofilm) was “detaches the biofilm”, the “killing of A. actinomycetemcomitans biofilms” value ([1]; 5 min or 30 min) was “did not significantly kill” and the “reduction in the number of CFU/tube” value ([1]; 30 min, versus mock-treated controls) was “little or no reduction”. The biofilm formation (E. coli) was “appreciable effect”, the biofilm formation (S. aureus) was “appreciable effect” and the specific activity [2] was ~10^3 units per mg of protein. For the same molecule, the “luminescence, Day 0” value ([3]; Table 3, Day 0, measured before treatment (baseline)) was 948.72 RLU, the “luminescence, Day 1” value [3, 4] was 1167.19 RLU and the “luminescence, Day 2” value [3, 4] was 1297.42 RLU. The “luminescence, Day 3” value [3, 4] was 1487.76 RLU, the “luminescence, Day 4” value [3, 4] was 1550.01 RLU and the “luminescence, Day 1” value [3, 5] was 2137.73 RLU. The “luminescence, Day 2” value [3, 5] was 1911.9 RLU, the “luminescence, Day 3” value [3, 5] was 2982.02 RLU and the “luminescence, Day 4” value [3, 5] was 2032.06 RLU. For the same molecule, the “luminescence, Day 0” value ([3]; Table 4, repeated experiment, Day 0, before treatment (baseline)) was 1815.26 RLU and the “course of biofilm luminescence (RLU) / metabolic activity over time” value ([3]; over 4 days, result in words) was “growth similar to the control”.
